Assay results reported in patent US20260209365A1, “ANTI-COMMON GAMMA CHAIN PROTEINS AND COMPOSITIONS OF MATTER” (SINOMAB BIOSCIENCE LIMITED, priority 2023, published 2026).
Positions count from the first letter of the chain named.

T1: human γc proteins (Homo sapiens, UniProt P31785)
T1 construct: extracellular domain of human γc protein (amino acids: 1-262); host or cells: Expi-CHO (e.g.)
T1 sequence (P31785 23-262): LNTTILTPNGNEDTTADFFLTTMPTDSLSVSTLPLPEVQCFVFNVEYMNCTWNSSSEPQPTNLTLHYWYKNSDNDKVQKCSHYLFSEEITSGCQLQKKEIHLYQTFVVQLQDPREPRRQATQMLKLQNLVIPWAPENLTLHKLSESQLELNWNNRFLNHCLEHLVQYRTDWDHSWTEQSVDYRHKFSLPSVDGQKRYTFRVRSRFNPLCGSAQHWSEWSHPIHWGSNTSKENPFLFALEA

T2: mouse γc (Mus musculus, UniProt P34902)
T2 construct: 6×His (C)
T2 sequence (P34902 with tags, fused parts or gaps): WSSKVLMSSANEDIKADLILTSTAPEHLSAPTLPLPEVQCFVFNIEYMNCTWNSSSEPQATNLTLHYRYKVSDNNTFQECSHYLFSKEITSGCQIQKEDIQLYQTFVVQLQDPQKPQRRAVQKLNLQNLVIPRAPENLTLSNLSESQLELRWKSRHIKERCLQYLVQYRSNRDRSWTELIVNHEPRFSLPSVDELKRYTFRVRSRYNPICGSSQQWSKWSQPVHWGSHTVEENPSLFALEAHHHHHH

B1: hSM-05A: full-length humanized anti-γc antibody derived from SM-05A by framework patching (antibody, V domains shown)
VH: QVQLVQSGAEVLKPGASVKVSCKASGYTFTEYTMHWVKQARGQRLEWIGGIDPYNGGATYNQRFKGKATLTTDTSTSTAYMELRNLRSDDTAVYYCARRRLYYGNALDYWGQGTLVTVSS
VL: DIVMTQSPLSLPVTPGEQASISCRSSQSLVHSNGNTYLHWYLQKPGQSPQLLIYKVSSRFSGVPDRFSGSGSGTDFTLKISRVEAEDVGVYFCSQTTHVPFTFGSGTKLEIKR
B2: hSM-05E: full-length humanized anti-γc antibody derived from SM-05E by framework patching (antibody, V domains shown)
VH: B1 VH with Y54N, N55T, A58V, R63K, L101R, N105Y
VL: B1 VL with L29I, H39E, S58N, T96S, T102M

Legend:
[1] = target: T1, human γc proteins; assay: BLI binding kinetics to human γc protein
Experimental: Full-length humanized antibodies were evaluated by BLI to access their binding kinetics. The binding activities of full-length anti-γc antibody were investigated using γc proteins (extracellular domain) from human and common marmoset (either purchased or in-house generated). Briefly, anti-γc antibody (20 μg/mL) was immobilized on biosensors via interactions with anti-human IgG; serially diluted γc proteins (at a concentration of 158.7 nM, 79.4 Nm, 39.7n M and 0 nM respectively) were subsequently added following standard operation protocols of the Octet ReD96 system to plot out the association and dissociation curve. Irrelevant antibody (SM03, anti-human CD22 chimeric IgG1 antibody, SinoMab BioScience Limited) was used as the control reference. The KD is within the picomolar-single digit nanomolar range.

[2] = target: T2, mouse γc; assay: BLI binding kinetics to mouse γc protein
[3] = system: IL-4 induced p-STAT6; assay: Suppression of p-STAT in PBMC, IL-4; type: cell-based, human; conditions: antibody 10 μg/ml, compared to isotype control
Excerpt: PBMC isolated from healthy individuals (iXCells Biotechnologies, San Diego, USA) is chosen as the primary immune cell culture to conclude the efficacies of anti-γc antibodies in the primary cells. As STAT phosphorylation could be triggered by the treatment of all six γc cytokines (except IL-9) in the PBMC culture (FIG. 12A-B), inhibition of p-STAT could be used as an indicator to confirm the efficacies of anti-γc antibodies.
(§1) Given numbers refer to the percentage of inhibition compared to isotype control stimulated with respective γc cytokine. Antibody concentration is 10 μg/ml.

[4] = system: IL-15 induced p-STAT5; assay: Suppression of p-STAT in PBMC, IL-15; type: cell-based, human; conditions: antibody 10 μg/ml, compared to isotype control
Experimental: as §1

[5] = system: IL-21 induced p-STAT3; assay: Suppression of p-STAT in PBMC, IL-21; type: cell-based, human; conditions: antibody 10 μg/ml, compared to isotype control
Experimental: as §1

[6] = Structural stability by SEC-HPLC; type: physicochemical; conditions: for purity by SEC-HPLC after incubation: 12 days after PBS exchange at RT and 37° C.
Experimental: Next, structural stabilities of hSM-05A and hSM-05E were studied by incubation at either room temperature or 37° C. for around 2 weeks. SEC-HPLC was utilized to measure aggregates and degradation of antibodies. […] No degradation of the antibodies was observed aft er 2 weeks.

[7] = system: γc proteins from chimpanzee; assay: ELISA binding of full-length antibodies to chimpanzee γc; design: species or system chimpanzee (Pan troglodytes); conditions: humanized antibodies with back-mutation
Experimental: Selected clones of full-length antibodies were evaluated by ELISA to access the binding specificity. The binding activities of full-length anti-γc antibody were investigated using γc proteins (extracellular domain) from human (SEQ ID NO: 205-206), cynomolgus (Sequence ID: XP_005593949.1, SEQ ID NO: 207-208) and chimpanzee (Sequence ID: XP_008971810.1, SEQ ID NO: 209-210) either purchased from Sino Biological or in-house generated.
Humanized antibodies with back-mutation (hSM-05A and hSM-05E) were tested in the following assays. Binding affinities were investigated in the ELISA assays.

[8] = system: Ramos B cells; assay: WST-8 proliferation assay, IL-4/IL-21 rescue of anti-IgM induced cell death; type: cell-based, human; conditions: humanized antibodies; 33 nM (5 μg/ml); vs ritlecitinib
Experimental: The effects of anti-γc antibodies in blocking IL-4 and IL-21 rescues of Ramos cell death after anti-IgM induced hyperactivation were investigated by WST-8 proliferation assay. In brief, Ramos cells (50000 cells in 100 l) were seeded into 96-well plate and stabilized at 37° C. for an hour. Cells were pretreated in anti-γc antibodies or ritlecitinib for an hour, followed by incubation of IL-4 (10 ng/ml) or IL-21 (10 ng/ml) and anti-IgM (2 ug/ml, #109-006-129, Jackson ImmunoResearch). Aft er 48 hours, 10 μl WST-8 reagent (ab228554, Abcam) was added to each well and incubated for 4 hours.
WST-8 could be reduced by cellular dehydrogenases to an orange formazan product, which the amount of formazan produced is directly proportional to the number of living Ramos cells. Optical density (OD) of each well was measured by absorbance at 450 nm using Varioskan LUX Multimode Microplate Reader (ThermoFisher Scientific).

[9] = room temperature or 37° C. for around 2 weeks

Sequence of γc proteins from chimpanzee (as listed by the source): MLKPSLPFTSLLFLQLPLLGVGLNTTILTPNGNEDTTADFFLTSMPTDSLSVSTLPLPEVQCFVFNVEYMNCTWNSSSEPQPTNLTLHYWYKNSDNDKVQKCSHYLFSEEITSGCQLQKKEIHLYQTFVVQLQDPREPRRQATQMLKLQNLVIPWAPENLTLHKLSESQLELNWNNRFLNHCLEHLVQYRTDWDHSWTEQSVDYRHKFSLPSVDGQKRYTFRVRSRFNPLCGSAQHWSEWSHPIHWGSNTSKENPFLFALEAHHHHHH

Molecule	Ka ([1]; Experiment 1) [M⁻¹ s⁻¹]	Kdis ([1]; Experiment 1) [s⁻¹]	Ka ([1]; Experiment 2) [M⁻¹ s⁻¹]	Kdis ([1]; Experiment 2) [s⁻¹]	Ka [2] [M⁻¹ s⁻¹]	Kdis [2] [s⁻¹]	IL-4 induced p-STAT6, percentage of inhibition [3] [%]	IL-15 induced p-STAT5, percentage of inhibition [4] [%]	IL-21 induced p-STAT3, percentage of inhibition [5] [%]	purity by SEC-HPLC after incubation [6]	aggregation state after incubation [6, 9]	ELISA binding to chimpanzee γc [7]	restimulation of anti-IgM induced cell death in presence of IL-4 or IL-21 (WST-8) [8]	fraction forming aggregates [6, 9]
B1	119000	0.000319	175000	0.00144	6580	0.000712	17.18	100	82.80	around 99.9%	remained as single molecule	retained the binding affinity and specificity	can restimulate anti-IgM induced cell death in a comparable level to ritlecitinib	
B2	119000	0.000573	327000	0.000944	340000	0.0252	21.74	100	100	around 80%		retained the binding affinity and specificity	can restimulate anti-IgM induced cell death in a comparable level to ritlecitinib	around 20%
